The target in this experiment is mGlu5-NanoLuc (UniProt P31424). Briefly: FRET or BRET; intermolecular BRET imaging in live hippocampal neurons expressing mGlu5-NanoLuc (donor) and Venus-Homer (acceptor); recorded for 30 min in soma and dendritic spines; control KCl 3 mM, and before and during depolarization with KCl 55 mM. (BRET reads energy transfer from a luciferase to a nearby fluorophore.)
Chain of UniProt P31424 (P31424 21-1203): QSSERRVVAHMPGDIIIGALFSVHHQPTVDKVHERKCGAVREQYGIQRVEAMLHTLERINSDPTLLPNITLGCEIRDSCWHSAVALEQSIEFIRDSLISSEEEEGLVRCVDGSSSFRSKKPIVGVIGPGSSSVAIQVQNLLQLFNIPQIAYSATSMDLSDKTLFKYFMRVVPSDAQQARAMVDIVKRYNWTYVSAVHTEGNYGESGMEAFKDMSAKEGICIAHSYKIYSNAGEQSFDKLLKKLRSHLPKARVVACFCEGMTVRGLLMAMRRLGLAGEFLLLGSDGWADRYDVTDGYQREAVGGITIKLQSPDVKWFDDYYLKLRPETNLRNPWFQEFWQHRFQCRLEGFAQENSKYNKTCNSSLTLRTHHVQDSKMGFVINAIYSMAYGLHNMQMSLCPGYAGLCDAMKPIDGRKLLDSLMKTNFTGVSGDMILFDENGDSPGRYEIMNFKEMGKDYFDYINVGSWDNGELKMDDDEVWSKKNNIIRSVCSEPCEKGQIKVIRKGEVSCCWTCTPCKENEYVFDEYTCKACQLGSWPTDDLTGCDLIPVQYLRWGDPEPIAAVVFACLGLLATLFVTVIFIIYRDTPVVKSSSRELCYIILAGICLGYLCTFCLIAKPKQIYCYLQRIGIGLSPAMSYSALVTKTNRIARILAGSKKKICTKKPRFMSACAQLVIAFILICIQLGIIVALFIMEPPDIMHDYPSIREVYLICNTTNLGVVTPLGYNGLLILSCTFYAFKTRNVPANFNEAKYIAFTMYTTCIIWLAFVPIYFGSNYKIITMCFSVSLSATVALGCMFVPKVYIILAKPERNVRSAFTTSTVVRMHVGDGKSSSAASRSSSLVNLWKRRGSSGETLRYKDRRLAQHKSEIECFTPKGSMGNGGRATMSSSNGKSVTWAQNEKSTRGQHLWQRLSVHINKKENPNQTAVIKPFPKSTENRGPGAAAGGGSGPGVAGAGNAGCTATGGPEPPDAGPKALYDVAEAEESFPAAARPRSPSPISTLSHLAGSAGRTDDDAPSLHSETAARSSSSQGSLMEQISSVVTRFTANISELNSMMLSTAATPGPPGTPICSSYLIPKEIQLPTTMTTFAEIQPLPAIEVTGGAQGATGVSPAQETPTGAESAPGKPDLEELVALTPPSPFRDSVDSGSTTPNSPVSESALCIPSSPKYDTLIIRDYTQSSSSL

Regarding “Venus-Homer (from UniProt Q9Z214 1-366) (natural protein)”, the drop of BRET signal with KCl 55 mM against before depolarization (soma) is 15% and the drop of BRET signal with KCl 55 mM against before depolarization (spines) was 16%.

The values are drawn from PMC5767221.
